Here are results for 1 molecule from US20170176465, “RNA APTAMER AND SENSOR EMPLOYING SAME” (Kyocera Corporation, published 2017).

For data set [1], the target named is Human serum albumin (HSA) (Homo sapiens, UniProt P02768 P02768:25-609). As to the kind of experiment: surface acoustic wave sensor; 5'-thiol aptamer. The following applies: label: 5'-biotin, 5'-amino or 5'-thiol. The method, then:
(§1) (11) A hemoglobin sample having been diluted into 11.6 μM with HBS-P(+MgCl2) was introduced through the passage 15 to the sensing element 3. Then, the amount of phase change occurring after 5 minutes of reaction was measured. Similarly, measurement was performed with employing human serum albumin (HSA) as a sample. Further, as for the hemoglobin sample, measurement was performed on samples of various concentrations.

Data set [2] concerns the target Hemoglobin (Hb), full length (Homo sapiens, UniProt P69905;P68871 P69905:2-142,P68871:2-147). As to the kind of experiment: surface acoustic wave sensor phase change; 11.6 uM Hb; signal rises with Hb concentration; HBS-P + MgCl2. Conditions: tags: Abcam ab77858; chain copies: 2,2; label: 5'-biotin, 5'-amino or 5'-thiol. The procedure: as §1

Hemoglobin (Hb), full length, sequence (P69905 2-142, chain 1 of 2): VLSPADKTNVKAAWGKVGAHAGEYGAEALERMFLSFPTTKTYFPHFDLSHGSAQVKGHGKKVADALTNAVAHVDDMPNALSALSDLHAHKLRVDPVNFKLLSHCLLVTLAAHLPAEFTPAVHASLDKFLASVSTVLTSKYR
Hemoglobin (Hb), full length, sequence (P68871 2-147, chain 2 of 2): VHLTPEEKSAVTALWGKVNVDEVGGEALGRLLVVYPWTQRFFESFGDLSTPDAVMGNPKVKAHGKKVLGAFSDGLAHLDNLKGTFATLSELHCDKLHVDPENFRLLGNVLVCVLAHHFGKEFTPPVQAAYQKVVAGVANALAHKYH
Human serum albumin (HSA), sequence (P02768 25-609, one chain of several): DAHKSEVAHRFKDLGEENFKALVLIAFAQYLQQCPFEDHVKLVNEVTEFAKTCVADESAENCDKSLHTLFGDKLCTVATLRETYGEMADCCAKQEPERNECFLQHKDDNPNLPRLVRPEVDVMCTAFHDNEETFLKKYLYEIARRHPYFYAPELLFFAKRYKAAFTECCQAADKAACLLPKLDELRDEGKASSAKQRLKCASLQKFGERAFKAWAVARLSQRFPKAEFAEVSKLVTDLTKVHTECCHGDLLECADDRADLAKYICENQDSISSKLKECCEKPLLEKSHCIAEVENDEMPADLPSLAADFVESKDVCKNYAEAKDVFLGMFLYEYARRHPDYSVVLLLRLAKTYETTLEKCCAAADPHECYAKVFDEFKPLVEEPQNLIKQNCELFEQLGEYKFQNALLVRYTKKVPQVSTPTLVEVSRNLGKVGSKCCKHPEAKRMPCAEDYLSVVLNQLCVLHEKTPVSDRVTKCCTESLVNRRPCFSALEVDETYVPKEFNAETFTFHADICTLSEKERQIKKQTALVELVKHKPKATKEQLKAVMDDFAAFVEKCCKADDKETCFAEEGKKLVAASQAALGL

B1: 6R_28 partial (36-mer) (ssRNA)
RNA: CGUAUUACGGCAUUAUUAGGACCAAUGCUGAGUACG
On to B1, for which the figures for the binding result in data set [1] and in data set [2] were “no binding” and “binds”, respectively.
